For this data set, the system named is GST-TfmR (Xanthomonas citri subsp. citri 306). In words: EMSA. The following applies: LightShift Chemiluminescent EMSA Kit per manufacturer; 1-2 ng biotin DNA, 20 pmol GST-TfmR, 15 min (Fig. 6); buffer, salt, pH and temperature not stated. On the technique in general: Mobility shift assays separate free from complexed probe on a gel.

One may read the Kd as the equilibrium constant for the complex coming apart. Consider pmhpC/fadE promoter, for which the Kd was found to be 87 nM.

The record behind these values is paper PMC6637906.
